# Laboratory results published in the supplement of paper PMC7877785.
# ± gives the uncertainty stated by the source.
# Experiment: self-splicing fitness, log relative to wild type (ln ratio); higher = more splicing; Tetrahymena group I intron in knt gene, E. coli kanamycin selection, DiMSum; sequences stand for … in CUCUCU…GGAGGGAAAAGUUAUCAGGCAUGCACCUGGUAGCUAGUCUUUAAACCAAUAGAUUGCAUCGGUUUAAAAGGCAAGACCGUCAAAUUGCGGGAAAGGGGUCAACAGCCGUUCAGUACCAAGUCUCAGGGGAAACUUUGAGAUGGCCUUGCAAAGGGUAUGGUAAUAAGCUGACGGACAUGGUCCUAACCACGCAGCCAAGUCCUAAGUCAACAGAUCUUCUGUUGAUAUGGAUGCAGUUCACAGACUAAAUGUCGGUCGGGGAAGAUGUAUUCUUCUCAUAAGAUAUAGUCGGACCUCUCCUUAAUGGGAGCUAGCGGAUGAAGUGAUGCAACACUGGAGCCGCUGGGAACUAAUUUGUAUGCGAAAGUAUAUUGAUUAGUUUUGGAGUACUCGUGGUCG
# Procedure, shortened: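 A randomised library covering all eight P1ex-region intron nucleotides was built with the intron in the knt kanamycin-resistance gene on pET-22b(+) and held in E. coli BL21(DE3). Cells were grown overnight at 37°C or 30°C on LB agar, with or without 25 μg/mL kanamycin, plus 100 μg/mL carbenicillin, 50 μM IPTG and 0.2% rhamnose, and pooled colonies were amplicon-sequenced on an Illumina HiSeq 2500. DiMSum fitness is the error-weighted combination of wild-type-normalised replicate fold changes, kanamycin versus none.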
Sequence,self-splicing fitness (ln) (30 °C),self-splicing fitness (ln) (37 °C)
GACGAGCAAUAUUACGUUGA,-2.36 ± 0.22,-1.5 ± 0.17
GCUCAGCAAUAUUACGUGAU,-0.424 ± 0.072,-0.373 ± 0.078
AUUGAGCAAUAUUACGCUGC,-3.62 ± 0.47,-1.77 ± 0.41
GCGUAGCAAUAUUACGGUCU,-0.587 ± 0.091,-0.159 ± 0.1
CUAAAGCAAUAUUACGCGUA,-3.35 ± 0.18,-2.63 ± 0.21
UCGAAGCAAUAUUACGAGUG,-1.56 ± 0.1,-1.52 ± 0.15
CUGUAGCAAUAUUACGCGCG,-0.982 ± 0.12,-0.117 ± 0.14
ACCCAGCAAUAUUACGUCGA,-1.03 ± 0.078,-0.528 ± 0.077
CCACAGCAAUAUUACGUACU,-2.01 ± 0.12,-1.93 ± 0.19
GAGGAGCAAUAUUACGGACC,–,-0.0508 ± 0.35
AAGAAGCAAUAUUACGGUGA,-1.11 ± 0.078,-0.329 ± 0.092
AGACAGCAAUAUUACGAUCG,-0.599 ± 0.072,0.599 ± 0.11
GGGCAGCAAUAUUACGGCGA,-0.562 ± 0.11,-0.245 ± 0.099
CUGUAGCAAUAUUACGCCCG,-0.124 ± 0.26,-0.221 ± 0.31
AUGUAGCAAUAUUACGGGUG,-3.85 ± 0.29,-2.54 ± 0.18
AUUGAGCAAUAUUACGGUGG,-3.84 ± 0.46,-1.27 ± 0.15
GACGAGCAAUAUUACGCUUG,-4 ± 0.26,-1.27 ± 0.16
UGCCAGCAAUAUUACGCCCC,-2.29 ± 0.26,-1.44 ± 0.29
GGCAAGCAAUAUUACGCAUG,-2.17 ± 0.12,-1.36 ± 0.16
CUACAGCAAUAUUACGAAUG,-0.558 ± 0.059,-0.464 ± 0.075
CAAAAGCAAUAUUACGUCUC,-3.38 ± 0.23,-2.15 ± 0.2
CGGUAGCAAUAUUACGCUAG,-2.28 ± 0.34,-0.219 ± 0.24
AUAUAGCAAUAUUACGGCUU,0.0949 ± 0.099,0.269 ± 0.12
CGAUAGCAAUAUUACGUGGC,-2.8 ± 0.21,-3.36 ± 0.46
UCAAAGCAAUAUUACGUCUU,-4.01 ± 0.18,-3.03 ± 0.17

Sequence,self-splicing fitness (ln) (30 °C),self-splicing fitness (ln) (37 °C)
AUGCAGCAAUAUUACGGGGA,-2.64 ± 0.16,-2.26 ± 0.18
GUCUAGCAAUAUUACGCUUC,-1.25 ± 0.11,-0.47 ± 0.12
AGGGAGCAAUAUUACGGUGA,-1.8 ± 0.24,-1.66 ± 0.26
ACAGAGCAAUAUUACGGUCC,-2.18 ± 0.14,-2.05 ± 0.39
ACCCAGCAAUAUUACGUUCU,-1.31 ± 0.062,-1 ± 0.071
AGUGAGCAAUAUUACGUCAU,-1.29 ± 0.14,-2.29 ± 0.22
UAUCAGCAAUAUUACGAGCG,-0.616 ± 0.059,0.345 ± 0.088
AAACAGCAAUAUUACGCUAA,-1.6 ± 0.084,-1.58 ± 0.1
CGACAGCAAUAUUACGGACG,-2.24 ± 0.11,-1.33 ± 0.15
UAUCAGCAAUAUUACGCUAU,-2.29 ± 0.11,-1.74 ± 0.1
UCAUAGCAAUAUUACGCCGC,-3.77 ± 0.33,-1.61 ± 0.41
UUGAAGCAAUAUUACGUUCA,0.472 ± 0.094,0.134 ± 0.11
AGGGAGCAAUAUUACGGUUG,-2.87 ± 0.19,-2.76 ± 0.36
UACCAGCAAUAUUACGUCUA,0.0647 ± 0.067,0.41 ± 0.086
CAUUAGCAAUAUUACGAACU,-2.29 ± 0.31,-2.63 ± 0.36
AGCAAGCAAUAUUACGAUUG,-4.19 ± 0.17,-1.91 ± 0.11
UUGUAGCAAUAUUACGCAUU,-2.84 ± 0.43,-2.26 ± 0.32
CUAAAGCAAUAUUACGAUGA,-2.57 ± 0.11,-0.323 ± 0.1
UAGGAGCAAUAUUACGGUCC,-3.93 ± 0.37,-0.78 ± 0.26
CCUAAGCAAUAUUACGGGAC,-3.86 ± 0.23,-2.7 ± 0.22
AGCAAGCAAUAUUACGUUCG,-2.66 ± 0.084,-1.44 ± 0.09
UUGUAGCAAUAUUACGUCCG,-1.24 ± 0.12,-0.388 ± 0.18
AACAAGCAAUAUUACGAGCA,-1.22 ± 0.099,-0.153 ± 0.11
CGCUAGCAAUAUUACGGUGU,-3.54 ± 0.15,-2.22 ± 0.21
UGUGAGCAAUAUUACGGCCG,-0.763 ± 0.15,0.477 ± 0.27

Sequence,self-splicing fitness (ln) (30 °C),self-splicing fitness (ln) (37 °C)
GGCCAGCAAUAUUACGCGAU,-3.5 ± 0.14,-2.17 ± 0.14
GAAUAGCAAUAUUACGCUCG,0.178 ± 0.15,-0.999 ± 0.16
CAUCAGCAAUAUUACGGUGG,-0.952 ± 0.045,-0.393 ± 0.068
AAGGAGCAAUAUUACGAUAA,-3.46 ± 0.25,-1.94 ± 0.18
UUGAAGCAAUAUUACGUCUU,-3.1 ± 0.18,-1.24 ± 0.12
UAUCAGCAAUAUUACGAAGG,-1.58 ± 0.1,-1.34 ± 0.13
AGGGAGCAAUAUUACGGCCG,-1.81 ± 0.16,-1.96 ± 0.16
CAUGAGCAAUAUUACGCUAC,–,-2.29 ± 0.49
AACAAGCAAUAUUACGUAGC,-3.1 ± 0.09,-2.07 ± 0.1
AUGGAGCAAUAUUACGACAA,-1.86 ± 0.22,-2.46 ± 0.22
AUGCAGCAAUAUUACGCAAC,-2.42 ± 0.18,-2.58 ± 0.2
UGACAGCAAUAUUACGGAAG,-2.29 ± 0.11,-1.19 ± 0.12
UCCGAGCAAUAUUACGCUUA,-2.39 ± 0.41,-2.47 ± 0.39
AAGGAGCAAUAUUACGCGGG,-3.76 ± 0.46,–
CCAGAGCAAUAUUACGGCGC,-3.67 ± 0.25,-2 ± 0.26
CAGGAGCAAUAUUACGCCCG,-2.75 ± 0.42,-0.874 ± 0.37
ACAAAGCAAUAUUACGACGG,-1.06 ± 0.07,-0.665 ± 0.093
CCAUAGCAAUAUUACGGCGU,-3.98 ± 0.3,-1.97 ± 0.23
AAAGAGCAAUAUUACGCAUG,-2.55 ± 0.18,-1.7 ± 0.098
GAAAAGCAAUAUUACGAUAC,-1.21 ± 0.25,-0.873 ± 0.22
GAGUAGCAAUAUUACGGGAU,-3.73 ± 0.33,-2.96 ± 0.35
AUAUAGCAAUAUUACGUAUA,-2.12 ± 0.23,-0.454 ± 0.17
GCACAGCAAUAUUACGUCGA,-0.827 ± 0.05,-0.258 ± 0.062
AUGAAGCAAUAUUACGUUUC,-4.39 ± 0.2,-3.03 ± 0.15
AAUUAGCAAUAUUACGGAAG,–,-0.915 ± 0.42

Sequence,self-splicing fitness (ln) (30 °C),self-splicing fitness (ln) (37 °C)
UAAAAGCAAUAUUACGCUUC,–,-3.19 ± 0.25
ACGUAGCAAUAUUACGCGCU,-1.89 ± 0.11,-0.586 ± 0.16
UCUGAGCAAUAUUACGUAUC,-3.62 ± 0.25,-1.69 ± 0.25
UUCAAGCAAUAUUACGUCUA,-0.495 ± 0.09,0.538 ± 0.081
GGGCAGCAAUAUUACGGACG,-1.01 ± 0.056,0.591 ± 0.078
UACUAGCAAUAUUACGUCAU,-2.66 ± 0.2,-1.74 ± 0.13
GUCCAGCAAUAUUACGUACC,-1.08 ± 0.15,-1.74 ± 0.24
GGCGAGCAAUAUUACGUAAA,-2.28 ± 0.16,-1.06 ± 0.15
UUGCAGCAAUAUUACGACCG,-0.719 ± 0.065,-0.144 ± 0.093
GAGUAGCAAUAUUACGAAGC,-2.94 ± 0.32,-1.8 ± 0.44
CGAUAGCAAUAUUACGGUUU,-3.43 ± 0.15,-0.7 ± 0.1
CCUGAGCAAUAUUACGCUCU,-3.59 ± 0.43,-2.26 ± 0.25
CUUCAGCAAUAUUACGCAAU,-4.04 ± 0.37,-2.04 ± 0.3
UUACAGCAAUAUUACGUAAG,-0.248 ± 0.068,-0.257 ± 0.097
AACCAGCAAUAUUACGUAUA,-1.4 ± 0.072,-0.853 ± 0.088
CUAUAGCAAUAUUACGCACA,-2.35 ± 0.27,-1.89 ± 0.25
UUAUAGCAAUAUUACGGCAA,-0.0783 ± 0.11,-0.348 ± 0.1
ACAUAGCAAUAUUACGGGAA,-2.36 ± 0.11,-1.7 ± 0.13
UAAAAGCAAUAUUACGCUGA,-2.35 ± 0.2,-0.613 ± 0.14
AAAGAGCAAUAUUACGCACA,–,-0.789 ± 0.28
CAUUAGCAAUAUUACGUACA,-2.7 ± 0.21,-2.58 ± 0.2
CAUGAGCAAUAUUACGCUCG,-2.72 ± 0.17,-2.68 ± 0.4
